Molecular target: purified recombinant GRP78 protein (GRP78-His) (human) (UniProt P11021)
Experiment: ITC

Chain of HBV particles (P03146 whole entry, looked up): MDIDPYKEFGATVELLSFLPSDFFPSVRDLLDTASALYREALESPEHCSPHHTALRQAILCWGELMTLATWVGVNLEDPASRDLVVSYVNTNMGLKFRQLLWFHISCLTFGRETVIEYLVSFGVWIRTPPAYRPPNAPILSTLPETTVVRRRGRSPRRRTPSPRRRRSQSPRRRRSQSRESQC
Chain of HBV particles (P03138 whole entry, looked up): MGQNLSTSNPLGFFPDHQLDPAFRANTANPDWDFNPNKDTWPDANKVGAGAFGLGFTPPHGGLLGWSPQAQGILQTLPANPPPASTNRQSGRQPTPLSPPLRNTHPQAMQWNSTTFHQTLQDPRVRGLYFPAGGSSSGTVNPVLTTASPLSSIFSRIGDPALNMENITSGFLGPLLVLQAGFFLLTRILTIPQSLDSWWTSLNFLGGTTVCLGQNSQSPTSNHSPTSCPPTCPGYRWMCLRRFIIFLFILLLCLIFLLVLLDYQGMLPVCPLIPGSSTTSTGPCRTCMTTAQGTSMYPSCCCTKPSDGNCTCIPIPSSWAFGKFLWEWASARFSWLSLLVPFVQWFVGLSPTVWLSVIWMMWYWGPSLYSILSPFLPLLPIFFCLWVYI
Chain of purified recombinant GRP78 protein (GRP78-His) (human) (P11021 19-654): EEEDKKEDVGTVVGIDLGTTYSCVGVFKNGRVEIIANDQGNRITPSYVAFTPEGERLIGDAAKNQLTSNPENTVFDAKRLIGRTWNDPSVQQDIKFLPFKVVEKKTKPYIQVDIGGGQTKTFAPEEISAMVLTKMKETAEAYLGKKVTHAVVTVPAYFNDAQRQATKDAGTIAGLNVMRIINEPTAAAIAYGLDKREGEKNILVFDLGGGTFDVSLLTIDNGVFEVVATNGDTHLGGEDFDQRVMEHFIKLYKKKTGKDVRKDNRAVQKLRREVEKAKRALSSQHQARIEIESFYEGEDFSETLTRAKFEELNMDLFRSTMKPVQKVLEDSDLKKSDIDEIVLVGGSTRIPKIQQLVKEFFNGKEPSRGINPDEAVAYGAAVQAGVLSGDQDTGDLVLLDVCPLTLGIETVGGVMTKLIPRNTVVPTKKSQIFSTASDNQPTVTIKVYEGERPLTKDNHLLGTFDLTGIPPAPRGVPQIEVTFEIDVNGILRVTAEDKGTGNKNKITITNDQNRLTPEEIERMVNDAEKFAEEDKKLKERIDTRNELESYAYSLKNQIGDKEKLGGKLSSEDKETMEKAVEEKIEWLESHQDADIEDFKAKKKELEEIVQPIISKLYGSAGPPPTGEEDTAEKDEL

**Q.** For “HBV particles (from UniProt P03138;P03146) (complex)”, which Kd is on record?
**A.** 75.6 µM

From paper doi:10.1101/2021.12.08.471876
